Publication PMC10643566, “Insights into the mechanism of SARS-CoV-2 main protease autocatalytic maturation from model precursors” (Communications Biology, 2023)

Columns and labels:
[1] = target: mature MPro^E290A (SARS-CoV-2); test: enzyme kinetics (K_dimer from kcat/Km and the slope of rate vs the square of the protein concentration); FRET substrate at 200 µM, buffer B (25 mM Tris-HCl, pH 7, 50 mM NaCl, 1 mM TCEP), 28 °C; kcat/Km determined with equimolar GC373; dimer to monomers
[2] = target: mature MPro^R298A (SARS-CoV-2); test: as above

With mature MPro^E290A (enzyme) the Kd [1] was 353 µM.
In the case of mature MPro^R298A (enzyme), the Kd [2] is reported as 7.13 µM.
